PMC3695027, “Structural Insights into the Effector – Immunity System Tae4/Tai4 from Salmonella typhimurium” (PLoS ONE, 2013)
Like-named read-outs stand apart in the source and are kept apart here.

B1: Tai4 immunity protein from Salmonella typhimurium, wild type, periplasmic (C-terminal hexahistidine tag) (natural protein)
chain: QEALTTQYSQSELLKNWALSHCLALVYKDDVVKNDARATASAYLEYGKQSVEIYHEIDEIAKKYSGLKYNGSISSDFNTMKCIDFIHDRELNELIKRRVEK
notes: Tai4, Salmonella typhimurium, NP_459276.1; Dimer in solution (cross-linking, static light scattering); the calculated dimer mass of 25.95 kDa fits the cut, tagged protein; also called Tai4wt; wild-type Tai4
B2: Tai4 immunity protein from Salmonella typhimurium, untagged, co-expressed with Tae4 (as in the Tae4/Tai4 complex) (natural protein)
chain: B1 chain
notes: Tai4, Salmonella typhimurium, NP_459276.1; Gln27 to Lys127 modelled in the crystal structure; Homodimer at the centre of the Tae4_2/Tai4_2 heterotetramer; The crystal for PDB 4J30 held the selenomethionine-substituted complex

How the values were obtained:
[1] = target: Tae4-ATTO 488 (fluorescently labelled Tae4 from Salmonella typhimurium) (Salmonella typhimurium); experiment: stopped-flow fluorescence kinetics; association by direct mixing: 0.1 µM Tae4-ATTO 488 with 0.3-1.5 µM Tai4; 293 K; 50 mM MES pH 6.5, 200 mM NaCl; kobs against Tai4 concentration, kon from the slope
[2] = target: Tae4-ATTO 488 (fluorescently labelled Tae4 from Salmonella typhimurium) (Salmonella typhimurium); experiment: stopped-flow fluorescence kinetics; dissociation: preassembled Tae4-ATTO 488/Tai4 complex (0.1 µM wild type or 0.2 µM mutant) chased with 1 or 2 µM unlabelled Tae4; apparent dissociation rate constant; limit for the wild type from simulated traces; KD calculated as koff/kon with the kon of the direct mixing
[3] = target: Tae4-ATTO 488 (fluorescently labelled Tae4 from Salmonella typhimurium) (Salmonella typhimurium); experiment: as above; remark: listed apart in the source
[4] = target: T1, Tae4 effector protein from Salmonella typhimurium (full-length, hexahistidine-tagged) (Salmonella typhimurium, UniProt Q93IS4 1-161); experiment: ITC
T1 chain: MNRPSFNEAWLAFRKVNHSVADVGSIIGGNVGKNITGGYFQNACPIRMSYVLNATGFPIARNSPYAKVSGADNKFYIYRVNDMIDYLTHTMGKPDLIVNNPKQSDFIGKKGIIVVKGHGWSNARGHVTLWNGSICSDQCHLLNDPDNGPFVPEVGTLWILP

[5] = target: the molecule itself; experiment: cross-linking; glutaraldehyde, 0.25 µg/µl protein in 20 mM HEPES pH 7.5, 37°C, aliquots 0 to 60 min, Coomassie-stained SDS-PAGE
[6] = target: T2, Tae4 effector protein from Salmonella typhimurium (full-length, hexahistidine-tagged) (Salmonella typhimurium, UniProt Q93IS4 1-161); experiment: ITC; 29.5 µM wild-type Tai4 titrated into 2.17 µM Tae4 in the cell; 293 K; 50 mM MES pH 6.5, 200 mM NaCl; single-site binding model; details: both partners purified
T2 construct: Tae4, Salmonella typhimurium, NP_459275.1, full-length orf; Asn2 to the C-terminal Pro161 modelled in the crystal structure; The single-expression construct was cut out of the bicistronic construct (NcoI/MfeI), so the Tae4 chain is the same in both; No tag removal is described; The crystal for PDB 4J30 held the selenomethionine-substituted complex; also called type-6-secretion amidase effector 4; …
T2 sequence: T1 chain

[7] = target: T2, Tae4 effector protein from Salmonella …; experiment: stopped-flow fluorescence kinetics; association by intrinsic tryptophan fluorescence (excitation 280 nm): 1.8 µM unlabelled Tae4 with 2.3-9.9 µM wild-type Tai4; 50 mM MES pH 6.5, 200 mM NaCl; data not shown; details: both partners purified
[8] = target: T2, Tae4 effector protein from Salmonella …; experiment: SEC-MALS; Superdex200 10/300 GL with multiangle light scattering detector; 50 mM Tris-HCl pH 8.0, 200 mM NaCl; 100 µM protein, 40 µl applied, 0.5 ml/min; details: both partners purified

Molecule	kon [1] [M⁻¹ s⁻¹]	Kd [2] [nM]	koff [2] [s⁻¹]	other results
Tai4 immunity protein from Salmonella typhimurium, wild type, periplasmic (C-terminal hexahistidine tag) (from UniProt Q8ZRL5 27-127) (natural protein)	2.48e+06	< 0.28	< 0.0007	koff [3]: 7e-05 to 0.0007 s⁻¹
Tai4(E71A_S98A) variant of the immunity protein from Salmonella typhimurium (C-terminal hexahistidine tag) (natural protein)	2.81e+06	255	0.716	
B1				Kd [4]: 1.28 nM; stoichiometry N [5]: 2; Kd [6]: < 1 nM; kon [7]: 2.57e+06 ± 233000 M⁻¹ s⁻¹
B2				stoichiometry N [8]: 1 Tai4 per Tae4 (2:2)
